Experimental findings from the domain aggregation screens of Martell et al. (2025) are described below.
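Further: 20 min heating vs room temperature control held 20 min.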

The series in a line: soluble fraction after stress (log2 fold change); higher = more stays soluble; pooled small domains, quantitative proteomics. Particulars: stress: 75 degC.
Regarding “HMLAGKTYEVQTESGGKWTLVASYNVKSQAIQQAQALLESHKYSGVKVIAESDRKGEEVIFNEQSEVT”, the “soluble fraction (log2)” value was -0.0725. The value for “HMLALKSGQVVVGTIIRRLDNTTAMLRIGNQLFETSFAKGLPKSNHILLRYDAMQGNRFIFTMVE” was -0.635; that for “HMLANLNKELQNDAALLKQKAQGNSNLLAKIQDVEQQMKQVNTSSASDEAKAKELQTLQRKLTAYKKALA” was -0.0577. “HMLAVSVDKDGKVYIQDSETAVDAVTAKLRAISGNNSEIRIFVRGDADVNYGRIMEIMGVINAAGFRKVAL”: the “soluble fraction (log2)” value is -0.111.

In the case of “HMLDEIAGQKVRVLEEINNSEGTGKVMYRGVEWMARSVDDAVMAKDSIVTVQSISGVKLMVT”, the “soluble fraction (log2)” value is -0.184. The value for “HMLDEKAVRQYLLNTLENSEIKMDRQAIDLFLRLTDLDLSKMMRELQKILLYGQEQEVITVKEIEQ” was -0.779; that for “HMLDGFEVGMTVMKKSGTEIGFTGWPSFADKDELPIIERIDTSDSTLLLKFKDMSWWIKASLVEPS” was -3.55; that for “HMLDLPEISARIMEVFETKDRATISELSKLTGTNINTIKKHLSSLVENNYLIKHGKTRGAWYTKST” was -0.126. The result for “HMLDLVSIGKRIKAERQKNGLTQEALAERIEVSAHYVYELERGLKAMSVPILLRMSEVLHTSTDYLLF” reads -3.34; that for “HMLDNHPQSKKIRALWLEMAAAGVVRDSSEQALALWVKRETGISALRWLSNEQASSVIEKLKKWQRRAAG”, -1.47; that for “HMLDPKVFVGKAGINEGIAKLLLQAFDKADLVKVRFTAERDVMETQMQELARLTGSEVIGNVGRTATF”, -0.0412.

Regarding “HMLEAMDSDEAAKVIEQIVNERADFVRSKGMGAIGPLMGPVMGALRGKVDGKQANELLTAAIKKLL”, the “soluble fraction (log2)” value was determined as 0.334. Regarding “HMLEASVYTAEKSGDRLDAFLAEQAGITRSYAQKLIEGGQVTLGGVVPKKNYKLSAGEQVELILPEN”, the “soluble fraction (log2)” value came out at 0.0466. On to “HMLEKVLDNHIHKLRLQHKISQQELADAIGVSRKTISTVETGRFTPSVVIALKIAAHFSVSVEQVFTL”, for which the “soluble fraction (log2)” value was -1.14. The value for “HMLEPEVLDLIGQVKSVHHFSVTQSHQLEKLVRHAHTLGFEIAELKSLLASSPNAKSLLSSLDQKLEPLRM” was -1.86; that for “HMLEQEQFESKLLKAINNINETQRIAFLMHRIDGKKYAEIASELNISVKAVEKRIHLALIELKKEIENF” was -0.747.

On to “HMLEQISDINILSGYAKEVIAENPKTVSDYLSGKAAAFQALVGQVMKKTGGRGNPVIIQEILKRLIHKK”, for which the “soluble fraction (log2)” value is -0.0597. The value for “HMLERKPVLVASRDLPALAVIGKDDLSVELLRTAPVGSYDRPEALLGKRVWVAVPAGSILSAATLEP” was -0.366; that for “HMLERPLKLKSHYVSTIYEKVAVQYSEGEEKKSVMGTLIEVNQDTIVLDDRGTIIEIPFKSITRAKTVF” was -3.6. On to “HMLETLVYPNPTTDKILLSSPVDYHLFSLKGELVLEGRGSSIEVSQLSKGVYFLNTKTQTFKIIK”, for which the “soluble fraction (log2)” value was -0.62. “HMLGARSLNEAVARNLPQILAKYQLIHIAGKNGFNPELQGRGYVQYEYVDTELKDLMALADIVVSR”: the “soluble fraction (log2)” value is -1.52. As to “HMLGERIKQIRKQKKMTQTDVATGIITKSMLSMIENGKATPSLPALQAIARRLQVTVEELML”, the “soluble fraction (log2)” value was -2.55. As for “HMLGFELVGIRGNNPESTIIILERDDYRLVEQGQNINSSVIFSHIDGSRAYFFDGQTYTFLDI”, the “soluble fraction (log2)” value is -2.78. Regarding “HMLGITEGSLVRVIRSPNFGKIGTVAELPAELRMMESETMVRIAIVEIEGTNFEIPRSNLEVLET”, the “soluble fraction (log2)” value is -1.6.

In the case of “HMLGKEVVRAYNISYAIDDKGSLQGDLTAALTGLIPLSKPPVLDQRNRSLYVTATPEQHKDVAALLAKL”, the “soluble fraction (log2)” value is -0.238. Consider “HMLGSGSKEQQLVILNNILERQVQAFNLQGGQEYPMVTLKNFYNTLSKMIENAGLKNVENYFVNPDVGKQM”, for which the “soluble fraction (log2)” value was -0.392. With “HMLHMKAALGELMSIPGMRSELAGTLFDRGYTSLAQLRAATLDDLERVNGLERADARRIHDFLRKS”, the “soluble fraction (log2)” value is -0.251. On to “HMLHQSLVVNAASGRVTVSLDIVPDEDNPYAVLRATDDSDEPLAQVRVAPSFKLNRASALAWIESQFARP”, for which the “soluble fraction (log2)” value was -2.34. For “HMLHSEDATVVRQAIPLLERHVDAATVAVARRNLAQLEQFGRYPRRNQALGRISNPAENAYLRAER”, the “soluble fraction (log2)” value came to 0.0695. The result for “HMLIDQYPYSIIYRLIPHGRSNAVPAAQIVGLTKLDERSIRIYVEAMRREGHIIASSSKGYYFPASIEE” reads -3.2. As to “HMLIGLNETESLVLDALIANPMRIDQVSAMLKKDVATTLKFLGGLSVRGLVETLFGGRFAPTKIALHARS”, the “soluble fraction (log2)” value amounted to 0.0549. For the sequence “HMLIIMNSDATKEQVDHVTSRVREAGFKDHIMPGAGKVAIGVTGTGDYDQTKLHLEILPGVFKIMRITK”, the “soluble fraction (log2)” value is -0.816.

“HMLIPADETEAKVLSVLSREPLHVDEIRNQAGLPIEKISATLALMELKGMVRQVGGMNYVSV”: the “soluble fraction (log2)” value is -0.044. As for “HMLKDKLSDKDFDFYKNKIQIQLQGNPTELKELVRRFSSTEEQQILKTIDYMLDNGFLRIDEDNMIYWK”, the “soluble fraction (log2)” value is -0.0419. The value for “HMLKDQSIAQLEKNLDDLKGLMRKMFGSSDVPKITKMISDIESSLANFNQSKANKLIVQTTNYISSKL” was -0.664.

For the sequence “HMLKEDSAYELGLRIFDQALNDYGTSFIDLKEDEYKKVLSIYGYSNPRQLIINIGLGNVIPHLLARDITE”, the “soluble fraction (log2)” value was -1.34. On to “HMLKEGIKEKINQLQVYADKNDNIIWYDRVVDILSDKDDSVTDEMIEAAIRTLEEAGISVERKQ”, for which the “soluble fraction (log2)” value worked out at 0.0727. For “HMLKEGQYSPNHFHWHKMEDIINRGGGTLLIRVYNSLPDEEIDRESDVTVHMDGVTRTVPAGTQLRLE”, the “soluble fraction (log2)” value was -0.124. “HMLKETGVITASVLNVREDIGTSSNIVAQLKKGMEVNILESRAIAGSETWYRIDAGSIKGWIFGDYI”: the “soluble fraction (log2)” value was -3.37. For the sequence “HMLKFGLSQRELQILALLPTDEPLSILAKSLFISESTLKTHLTHIYRKLGVKNRLQAINVARKAGLLK”, the “soluble fraction (log2)” value is -1.59.

For the sequence “HMLKHSKQRDAIEQFLATRYDHPTAETVYMNLREEYPKLSLATVYRNLSLLAELGNIQKIPTGNGPDRFDG”, the “soluble fraction (log2)” value is -0.343. For “HMLKIAENIYQRRKEKNITQEELADFMMVTKASVSKWETGQSYPDILLLPKLATFFNVTVDELIGYEPQ”, the “soluble fraction (log2)” value was -2.72. Take “HMLKIVRSREEVESRLYTIYGNVKGRRLYNFYLSLIIDGLDIVKARTSKNVYYTNIRNLKNAGIDFSQKIN”: the “soluble fraction (log2)” value was -2.28.

Turning to “HMLKPKDLHLGDSVRVLSLNLKGTVSSLPDTKGFLFVQMGIMRSKLHISDLQLIDEPVITAP”, the “soluble fraction (log2)” value is -2.23. As for “HMLLFSVADIVKRSKRILSFKTDAELAAYFGVSRSTLSNWIARNSIDFPLLLSKMKDVDYTWLILGKGTPG”, the “soluble fraction (log2)” value was -3.97.

As to “HMLLLHINQMGVTEFSQLELNHVRSWLANLQIKGAARSSITRRVVSVRAFTYWGAKNGWLASDIGRDLVAP”, the “soluble fraction (log2)” value was -0.459. “HMLLRVGGLVKDGSVRTDNDLGIKFIIEDNLAEVSVLYNGILPDLFREGQGVIAEGKFIDNIFIANEIVA”: the “soluble fraction (log2)” value is -0.682. As for “HMLLSHTAQREGELLTFLRGELALSSGLVKRLKWQNAFFLDGAPVHTNARVKPGQEITVRIEE”, the “soluble fraction (log2)” value is -1.59.

As for “HMLLTEETLPQLKQIVDEFPYFQIARMLYLKNLAVLNDIRFSVELKKMSIYVPDRRKLFTLIEGE”, the “soluble fraction (log2)” value came out at 0.044. “HMLLTLPEDIITMVRQGTLSAGHARVLAGLESDEMKMTLARQTITNEWSVRQLENAVALMRKS”: the “soluble fraction (log2)” value was -0.906. Take “HMLLTPLEETRLVIEEIVIPQKLTIDLLPRSSAIRKLQHELITHYQLRGTSVGNEPNRRLRIYP”: the “soluble fraction (log2)” value was -0.121.

As to “HMLMNADVLVKYQEDHWIVISEKASQASDTFDKKEQAVERAKEIAKNKNSSVKVYKQDGTLQDTFDYS”, the “soluble fraction (log2)” value turned out to be 0.351. Take “HMLMSDEENAEFTKLYRQLVFKLHPDLNPNQTKDEENLWHKVQMAYKGGDLEEMRSLAIILDAQ”: the “soluble fraction (log2)” value worked out at 0.0885. For the sequence “HMLMTGSLQTKHGKYYVVVRIPDGLGNTKAKWINTGIPTDGNNKRKAQQRRIEILTELEENKD”, the “soluble fraction (log2)” value was -2.47.

With “HMLMYAQDEKEEASNNIPYRLLHMSFTKEQKAELQRAMDVRVPKDIILSYFYPDTPVARMMEIRRQYESA”, the “soluble fraction (log2)” value is -0.814.

Consider “HMLNDKLQTLFSLFPAVDKDLKKKGVTRQILWEQYKRNHPDGVGRSQFNYYYAQWKDQVNPT”, for which the “soluble fraction (log2)” value was -1.02. As for “HMLNDMYAVMEIRGQGGELIAKLINQDGSPFYVKKGTTLQSGHVIDEITTTYVRAEKAGAKDYLYF”, the “soluble fraction (log2)” value is -0.939. As for “HMLNDTGAIRAAVEEVLAANEKSVNEYKGGKTQAFQYLIGQSMRALRGKAPAQEVTKLLKELLG”, the “soluble fraction (log2)” value is -0.564. For the sequence “HMLNQIGVSQKEFDQIHTAIKIALKTSSLTPTGITEKLPKFPPEKTADILRWMADNKEVLLNSEEKYELKT”, the “soluble fraction (log2)” value was -0.297. For the sequence “HMLPAGAAAPLEDGSAPEGYTVKGNADSGLYHEPDGRWYDATVAEFWFKTAADAEAAGFRKAGS”, the “soluble fraction (log2)” value amounted to 0.149. With “HMLPDGEAFVKVNTSLNIRTGPWGQIVGWFHNNDKVKIIGRDGDWYKISHNGQTRYIHSRYVSSSR”, the “soluble fraction (log2)” value was -1.2. Regarding “HMLPDHAPITMRQLAMLHVAKNKLDLTDEDYRSLLLLYGGVESSKQLNQEGLRRVLDRFKELGFEP”, the “soluble fraction (log2)” value is -0.45. Turning to “HMLPDLLNGRVIPSPEKVIRARLNRGVWELLVQWVGRAPSDATWENLLEFKSAYPSVQLEDALF”, the “soluble fraction (log2)” value was -1.97. In the case of “HMLPDLQKAIDTFLYEVDSRINTSFEELIDKLNSKEEAVAFFLALLEAVRWGFIKAEQESNSINIKK”, the “soluble fraction (log2)” value is -0.898. On to “HMLPDSQLMKEATAWFMRQAADDFSGAERRRLDAWRAQSPAHARAYHQVQALWNAPELQQAAAR”, for which the “soluble fraction (log2)” value was -0.113. “HMLPEGIENGDVLTRTDALDYRKWLVTGNQKRIFASTASFYGENFNYSEVKAVSDRVLDAIPDGEPV”: the “soluble fraction (log2)” value is -0.0413.

For the sequence “HMLPFGHTRLEDGTIQEIPEQIALARKVAEMYKAGFPVMQISIKTEGLLTPRQIYGLMNHWGVKR”, the “soluble fraction (log2)” value was -1.3.

Consider “HMLPIKLDLEIGENVRVVSGPLENFVGSVVSFDTDQQKVKLVVEMFGRKTPVELDFIEVQKLR”, for which the “soluble fraction (log2)” value is -2.24.

As to “HMLPIMDRLITAGISINTAKKWVDKFGDKRIKQNLAYSLAKQKEGKVKTNFVGYLAKAIEEDWGSGWE”, the “soluble fraction (log2)” value is -1.5.

As for “HMLPKAERREQLMAVARSVFAEQGYHTTSMEIIAETAGVSKPLLYQHFPSKLDLYLALLDAGID”, the “soluble fraction (log2)” value is -1.8.
